Results from US20150376282A1.
One block for each molecule: values may come before it.

Columns and labels:
2F8-HG (human) [1] = assay: non-covalent nano-ESI MS, 1 µM, self-association
2F8-HG (human) [2] = assay: non-covalent nano-ESI MS, monomer/dimer equilibrium (CH3-CH3 dimerisation of half-molecules)
2F8-HG-L236V (human) = assay: non-covalent nano-ESI MS, 0.01-10 µM, self-association
2F8-HG-Y275A (human) = assay: as above
2F8-HG-F405A (human) = assay: as above

Molecule: 2F8-HG-L236V (antibody)
percent monomeric at low concentrations (2F8-HG-L236V (human)): 100%

Molecule: 2F8-HG-Y275A (antibody)
percent monomeric at low concentrations (2F8-HG-Y275A (human)): 100%

Second part, the molecule after the results:

percentage molecules present as monomers (2F8-HG (human) [1]): 15%
Kd (2F8-HG (human) [2]): 50 nM
Molecule: 2F8-HG (antibody)

percent monomeric at low concentrations (2F8-HG-F405A (human)): 100%
B1: 2F8-HG-F405A (antibody, part only; not given: 2F8 VH and light chain, part only)
heavy, part: ASTKGPSVFPLAPCSRSTSESTAALGCLVKDYFPEPVTVSWNSGALTSGVHTFPAVLQSSGLYSLSSVVTVPSSSLGTKTYTCNVDHKPSNTKVDKRVAPEFLGGPSVFLFPPKPKDTLMISRTPEVTCVVVDVSQEDPEVQFNWYVDGVEVHNAKTKPREEQFNSTYRVVSVLTVLHQDWLNGKEYKCKVSNKGLPSSIEKTISKAKGQPREPQVYTLPPSQEEMTKNQVSLTCLVKGFYPSDIAVEWESNGQPENNYKTTPPVLDSDGSFALYSRLTVDKSRWQEGNVFSCSVMHEALHNHYTQKSLSLSLGK
